These results are taken from article PMC4443670, “The C-terminal region of the motor protein MCAK controls its structure and activity through a conformational switch” (eLife, 2015).

Substitutions are numbered along the chain they refer to. Numbers in names are those of the source. Where “and” joins values, the source holds several entries; their conditions need not be identical. Identical values can stand only once. Like-named read-outs stand apart in the source and are kept apart here.

A short description of series [1]: Analytical size-exclusion chromatography (oligomeric state / size). Type of series: physicochemical. As to the method: Protein expression was induced by addition of 0.5 mM IPTG to BL21(DE3) Codon plus cells transformed with respective constructs at OD600 of 0.7–0.8 for 16 hr at 18°C. Cells were lysed by sonication in lysis buffer (50 mM Hepes, pH 7.4, 200 mM NaCl, 1 mM MgCl2, 1 mM PMSF, 1 mg/ml DNaseI, 2 mg/ml lysozyme, 10 mM Imidazole) and clarified at 20,000 rpm for 1 hr at 4°C. His-tagged and GST-tagged proteins were subsequently purified using Ni-NTA–agarose beads and glutathione-sepharose beads, respectively (GE Healthcare Life Sciences, UK)) according to the manufacturer's guidelines. MCAK constructs containing the motor domain were eluted with elution buffer (50 mM Hepes, pH 7.4, 200 mM NaCl, 1 mM MgCl2, 1 mM ATP, and 300 mM imidazole). Cleavage of the GST tag was performed using the GST-3C protease overnight at 4°C. […] Protein concentrations were determined with a combination of Bradford protein assays and densitometry of Coomassie-stained gels relative to a BSA standard. […]
(SEC sorts molecules by how far they enter the pores of the column.)

Series [2] can be described thus: Size-exclusion chromatography coupled to multi-angle light scattering (SEC-MALS). As to conditions: 100 mM HEPES pH 7.2, 150 mM NaCl. Type of series: physicochemical. As to the method:
Size-exclusion chromatography with on-line multi-angle light scattering (SEC-MALS) was performed using a GE Superdex 200 10/300 GL column on an ÄKTA FPLC system. MALS measurements were performed using a MiniDAWN in-line detector (Wyatt Technology, Santa Barbara, CA, USA). MCAK motor domain and C terminus were at 2 mg/ml in 100 mM HEPES, pH 7.2, 150 mM NaCl. Protein concentration was monitored using a UV monitor at 280 nm and a refractive index detector was set at 690 nm (Optilab DSP, Wyatt Technology, Santa Barbara, CA, USA). Data were analyzed using Astra software (Wyatt Technology, Santa Barbara, CA, USA) using the refractive index detector and a refractive index increment (dn/dc) value of 0.185 ml/g. Gel phase distribution coefficients (Kav) were determined from the equation Kav = (Ve − Vo)/(Vt − Vo), where Ve, Vo, and Vt represent the elution volume of the protein of interest, the column void volume and the total bed volume of the column, respectively.

Series [3] addresses taxol-stabilized microtubules. Kind of series: Microtubule cosedimentation assay, untreated microtubules. The format is binding. Particulars: for Kd: 50 nM, modified Hill equation, at least three independent experiments, read-out: apparent Kd for microtubules. As to the method:
(§1) Full-length MCAK complex was diluted in S buffer (50 mM NaCl, 20 mM Hepes pH 7.0) to 50 nM, in absence of nucleotide to prevent MCAK-dependent microtubule depolymerisation. To assemble an MCAK motor-CT domain complex, 50 nM of the motor domain and 100 nM of the CT domain were used. Microtubule binding assays were performed as described ([Cheeseman et al., 2006]) using equal volumes of taxol-stabilized microtubules in BRB80 and MCAK in S buffer. MCAK was quantified using anti-MCAK antibody against the C terminus of MCAK (709[…]720), generated by GL Biochem (Shangai) Ltd (China) or anti-His antibody to probe for the motor domain alone (GE Healthcare Lifesciences, UK). The data from at least three independent experiments were fitted to a modified Hill equation to determine the apparent Kd.

In series [4] the target is subtilisin-treated microtubules. Kind of series: Microtubule cosedimentation assay, subtilisin-treated microtubules. The format is binding. As to conditions: for affinity for subtilisin-treated microtubules (β-tubulin C termini removed): 50 nM full-length protein, subtilisin 10 min. Here is the method: as §1
Tubulin (5 mg/ml) was first polymerized into MTs in the presence of 1 mM GTP and gradual addition of 0.05 µM, 0.5 µM and 2 µM taxol for 1 hr at 37°C. The polymerized MTs were then treated with 100 μg/ml subtilisin and incubated at 37°C for 10 min to cleave β-tubulin tails and 120 min to cleave both α- and β-tubulin tails. Each reaction was then terminated with the addition of 3 mM PMSF. DM1A (Abcam, UK) and c-terminal β-tubulin (Sigma, UK) were used to detect the α- and β-tails, respectively by western blotting. The subtilisin treated microtubules were then pelleted at 28°C in a TLA100 rotor at 80,000 rpm for 10 min and the microtubule pellets were resuspended in warm BRB80 buffer to obtain subtilisin treated microtubules. The cosedimentation assays were then performed as described before.

Series [5] deals with taxol-stabilized microtubules. Kind of series: Microtubule depolymerisation assay. Type of series: biochemical. Here is the method: Microtubule depolymerization assays were performed essentially as described previously ([Hertzer et al., 2006]). MCAK was diluted to 100 nM in S-buffer containing 1 mM DTT and 2 mM Mg-ATP. For depolymerization assays of the motor domain in presence of the CT domain after GST cleavage and removal, 50 nM of motor domain and 100 nM of the CT domain were used. The microtubule depolymerization assay was initiated by the addition of 2 μM taxol-stabilized microtubules to a reaction buffer containing MCAK. Reactions were incubated at room temperature with increasing times and followed by centrifugation to separate microtubules from free tubulin. The data are represented as mean ± SD from three independent experiments.

Where [6] appears, read: full-length protein, absence of nucleotide, untreated microtubules.

B1: motor domain: motor region of MCAK along with the neck linker region (residues 181–583), His-tagged (protein, UniProt Q99661 181-583, looked up, fragment)
chain: SANPVNSVRRKSCLVKEVEKMKNKREEKKAQNSEMRMKRAQEYDSSFPNWEFARMIKEFRATLECHPLTMTDPIEEHRICVCVRKRPLNKQELAKKEIDVISIPSKCLLLVHEPKLKVDLTKYLENQAFCFDFAFDETASNEVVYRFTARPLVQTIFEGGKATCFAYGQTGSGKTHTMGGDLSGKAQNASKGIYAMASRDVFLLKNQPCYRKLGLEVYVTFFEIYNGKLFDLLNKKAKLRVLEDGKQQVQVVGLQEHLVNSADDVIKMIDMGSACRTSGQTFANSNSSRSHACFQIILRAKGRMHGKFSLVDLAGNERGADTSSADRQTRMEGAEINKSLLALKECIRALGQNKAHTPFRESKLTQVLRDSFIGENSRTCMIATISPGISSCEYTLNTLRYAD
modifications: His tag
notes: motor region of MCAK along with the neck linker region (residues 181–583), His-tagged
Regarding B1, the “apparent size (gel filtration)” value in series [1] is reported as approximately 45 kDa. In addition, the fraction monomeric entry in series [2] (SEC-MALS, absence of CT domain, 2 mg/ml) is reported as “over 90%”. The same molecule had a Monodispersity in series [2] (SEC-MALS) of 1.005. Moreover, in series [2] (SEC-MALS, Superdex 200 10/300 GL, 2 mg/ml, unit printed kDa in text, kD in figure), the “measured molecular weight (MW)” value is reported as approximately 45.3 kDa. The “Stoke Radius” value in series [2] (from SEC calibration curve) is 3.11 nm. Moreover, the Kd was determined as 640 nM in series [3] (motor domain alone, absence of nucleotide) and 200 nM in series [4] (50 nM motor domain in motor-CT domain complex, subtilisin-treated microtubules (10 or 120 min), absence of nucleotide). Further, the “effect of α-tubulin tail removal on affinity for microtubules lacking β-tubulin tail” value in series [4] (50 nM motor domain, subtilisin 120 vs 10 min) is “did not further modify the affinity”. The “microtubule depolymerase activity of motor with CT domain, with and without DTT” value in series [5] (50 nM motor domain, 100 nM CT domain, 2 μM taxol-stabilized microtubules) is “could depolymerize microtubules”.

B2: CTE712C-bound motor: motor domain covalently bound (disulphide) to CTE712C domain (protein)
chain 1: NPVNSVRRKSCLVKEVEKMKNKREEKKAQNSEMRMKRAQEYDSSFPNWEFARMIKEFRATLECHPLTMTDPIEEHRICVCVRKRPLNKQELAKKEIDVISIPSKCLLLVHEPKLKVDLTKYLENQAFCFDFAFDETASNEVVYRFTARPLVQTIFEGGKATCFAYGQTGSGKTHTMGGDLSGKAQNASKGIYAMASRDVFLLKNQPCYRKLGLEVYVTFFEIYNGKLFDLLNKKAKLRVLEDGKQQVQVVGLQEHLVNSADDVIKMIDMGSACRTSGQTFANSNSSRSHACFQIILRAKGRMHGKFSLVDLAGNERGADTSSADRQTRMEGAEINKSLLALKECIRALGQNKAHTPFRESKLTQVLRDSFIGENSRTCMIATISPGISSCEYTLNTLRYAD
chain 2: VIKALRLAMQLECQASRQISSKKRPQ
modifications: disulphide bridge of Cysteine 287 to Cysteine 712 of the CT_(E712C) domain | disulphide bridge of Cysteine 712 to Cysteine 287 of the motor domain; left off: His tag, end not stated, kept | GST, end n
With B2, the “detection of CT domain in microtubule-bound pellet / supernatant” value in series [3] (western blot, 50 nM motor domain, with and without DTT) is given as “remained in the supernatant”.

B3: MCAKS715E: full-length MCAK S715E in which the CT domain cannot bind to the motor domains (protein)
chain: MAMDSSLQARLFPGLAIKIQRSNGLIHSANVRTVNLEKSCVSVEWAEGGATKGKEIDFDDVAAINPELLQLLPLHPKDNLPLQENVTIQKQKRRSVNSKIPAPKESLRSRSTRMSTVSELRITAQENDMEVELPAAANSRKQFSVPPAPTRPSCPAVAEIPLRMVSEEMEEQVHSIRGSSSANPVNSVRRKSCLVKEVEKMKNKREEKKAQNSEMRMKRAQEYDSSFPNWEFARMIKEFRATLECHPLTMTDPIEEHRICVCVRKRPLNKQELAKKEIDVISIPSKCLLLVHEPKLKVDLTKYLENQAFCFDFAFDETASNEVVYRFTARPLVQTIFEGGKATCFAYGQTGSGKTHTMGGDLSGKAQNASKGIYAMASRDVFLLKNQPCYRKLGLEVYVTFFEIYNGKLFDLLNKKAKLRVLEDGKQQVQVVGLQEHLVNSADDVIKMIDMGSACRTSGQTFANSNSSRSHACFQIILRAKGRMHGKFSLVDLAGNERGADTSSADRQTRMEGAEINKSLLALKECIRALGQNKAHTPFRESKLTQVLRDSFIGENSRTCMIATISPGISSCEYTLNTLRYADRVKELSPHSGPSGEQLIQMETEEMEACSNGALIPGNLSKEEEELSSQMSSFNEAMTQIRELEEKAMEELKEIIQQGPDWLELSEMTEQPDYDLETFVNKAESALAQQAKHFSALRDVIKALRLAMQLEEQAERQISSKKRPQ
modifications: left off: His tag, end not stated, state not stated
B3: the Kd in series [3] (setting [6]) is ~200 nM and 200 nM. In addition, the “affinity for subtilisin-treated microtubules (β-tubulin C termini removed)” value in series [4] (absence of nucleotide) is “remained comparably high”. Moreover, the “microtubule depolymerase activity, full-length” value in series [5] (100 nM protein, 2 μM microtubules, 1 mM DTT, 2 mM Mg-ATP, room temperature, three experiments) is given as “appeared similar to wild type MCAK”.

B4: MCAK: full-length wild type MCAK, kinesin-13 microtubule depolymerase (protein)
chain: B3 chain with E715S
modifications: left off: His tag, end not stated, state not stated
notes: full-length wild type MCAK, kinesin-13 microtubule depolymerase
Turning to B4, the Kd in series [3] (setting [6]) was ~1500 nM and 1500 nM. For the same molecule, the “affinity for subtilisin-treated microtubules (β-tubulin C termini removed)” value in series [4] (absence of nucleotide) is “increased the affinity”.

B5: MCAKE712C: full-length MCAK with Glu712 mutated to cysteine (protein)
chain: B3 chain with E712C, E715S
modifications: left off: His tag, end not stated, state not stated
notes: full-length MCAK with Glu712 mutated to cysteine
As for B5, in series [1], the gel filtration profile result was “eluted as one complex, of similar size to MCAK”. For the same molecule, in series [3] (full-length protein 50 nM, absence of DTT and nucleotide), the “microtubule binding, absence of DTT (oxidizing)” value is “the affinity of MCAKE712C for microtubules was reduced and a fraction of MCAKE712C did not bind microtubules, even at saturating microtubule concentrations”. In series [3] (full-length protein 50 nM, with DTT, absence of nucleotide), the “microtubule binding, presence of DTT” value is recorded as “bound to microtubules similarly to wild type full-length MCAK”.
